Laboratory results published in patent US11066655B2, “RNA polymerase, methods of purification and methods of use” (President and Fellows of Harvard College, priority 2013, dated 2021).

B1: Syn5 RNAP: single subunit DNA-dependent RNA polymerase from marine cyanophage Syn5, amino acid sequence SEQ ID NO:23 (protein)
chain: MSFDLIARQLQRETEAAELARKRLQDARREANERSYASSNIESRKAIATFLDPIAQRIGERLFTLRRGTGAVDAAEVYKHLKNADHHHLALITMKTALDVLGKDPEPQIQQLTTAIGRNIQLELRLTYYAEENPELYKQASRFFHAGTGTRQKATVIKLKFNREGIEWDQWSRVTCHKVGQWLMLAMADVTGWIERATDRTSGGRKTKTRICYSREFLQHRDTILAAAEQLAFCQWPMLCPPIEWSNDHNGGYLSEQIRRVNPLIRKTGPLGTRKQGDIPLAMLNNLQGQAYKVNPEVLDIANHCYESNVTVGKFIRHAPLPVPPSPGEDCTEDQLTAYKRARREAEDFNAQISQKNWRTTEVMYVARKYADEASFWMPASFDYRGRVYFLNTALNPQGTDFDKALLYFAEEGPVNEWWLSFHVATTYGLDKETMVNRVQWARDNHELIDRIASDPVRHTEWHDADEPWCFLAACLEYKACVIDGTKQTSGLPIGIDATCSGLQHLAAMTRCGRTAALVNVTPTDKPADAYKTVAQASLKHLPKEQHEWITRKVTKRPVMCTPYGVTMSSARGYIRDQLVKDGHKEDLRSPGVLNGIVKAIFNEAIPEVIPGPVQVMAWLKRSAGQIIDRGDSTITWTTPSGFEVVQDLKKSKTYEVKTRIMGGARIKLQVGDGFTDEPDRDHHKSALAPNVVHSNDASLLHLTFAFWDKPFTVIHDCVLGRSCDMDQMGSDIRLHFAEMYKADVMQDWADQVGVELPVDLIKNTLDIDSVNQSLYFFS
modifications: Amino acid sequence of a cyanophage Syn5 RNAP

Key:
T7 promoter = assay: Cross recognition of promoters, gel transcription assay; type: biochemical, bacteriophage T7; conditions: T7 DNA fragment with T7 Φ1.1 B promoter
Protocol: FIGS. 3A-3C depict characterization of the Syn5 promoter. A) Determination of the 3′-end of Syn5 promoter. 3′-dATP, 3′-dGTP, 3′-dUTP replaced ATP, GTP and UTP, respectively, as chain terminator to sequence the 5′-end of Syn5 RNAP transcript on a template same as template 1 in FIG. 2B. Once the 5′-terminus of the transcript was determined, the sequence preceding it should be the promoter and the 3′-end of the promoter can thus be defined. A 25% TBE-urea gel was used for this assay. B) Cross recognition between Syn5 and T7 transcription systems. Syn5 RNAP synthesizes runoff products on a fragment of T7 DNA provided the T7 promoter is replaced by a Syn5 promoter (lane a). Syn5 RNAP fails to produce transcripts if the first nucleotide downstream of the promoter is changed from G to T (lane b). […]
For the gel assay results shown in FIGS. 1, 2, 3, and 13, reaction mixtures (20 μl) contained 40 mM Tris-HCl (pH 7.9), 6 mM MgCl2, 2 mM spermidine, 10 mM DTT, 200 µM[…]P, GTP and UTP, 10 µM [[…]-^32P]CTP, 1.5 U/µl RNaseOUT™ recombinant ribonuclease inhibitor (Invitrogen), 100 nM Syn5 or T7 RNAP, and DNA templates as described in the figure legends (either 2 nM phage genomic DNA, 4 nM purified PCR products, or 1 µM synthetic dsDNA fragments). […] After electrophoresis, gels were dried and analyzed using a Fuji BAS 1000 Bioimaging Analyzer.

[1] = test system: linearized pET24-Syn5RNAP; assay: Long run-off RNA synthesis and incorporation of modified nucleotides (yield by A260); type: biochemical
Protocol: FIGS. 12A-12B depict synthesis of long run-off product and the incorporation of modified nucleotides by Syn5 and T7 RNA polymerase. A) On the linearized plasmid template as shown in the schematic, the production of RNA by either RNA polymerase (10 nM) was analyzed on agarose gel as lane 2. […] Lane 3 and 4 show the same RNA synthesis when CTP was replaced by 5mCTP and UTP by Ps-UTP, respectively. B) Incorporation of UTP or Ps-UTP into small RNA by 22, 67, and 200 nM Syn5 and T7 RNA polymerase as analyzed by denaturing TBE polyacrylamide gel. Full-length run-off product and the N+1 product are shown.
The plasmid pET24 harboring the Syn5 RNAP gene (pET24-S5RNAP) that contains a single Syn5 promoter in the RNAP gene and a single T7 promoter preceding the gene was used for filter binding assay as shown in FIG. 8. pET24-S5RNAP was also linearized by EcoRI treatment and recovered by gel extraction to serve as template for FIG. 12A.
For the results shown in FIG. 12A, reaction mixtures (10 μl) contained 40 mM Tris-HCl pH 8.0, 6 mM MgCl2, 2 mM spermidine, 10 mM DTT, 600 µM[…]P, GTP, CTP (or 5Me-CTP), and UTP (or Pseudo-UTP), 1.5 U/µl RNaseOUT™ recombinant ribonuclease inhibitor, 0.04 U/µl yeast inorganic pyrophosphatase, 10 nM linearized (NotI treated) pET24-Syn5RNAP, 0 or 160 mM KCl, and 10 nM Syn5 or T7 RNAP. Syn5 reaction was carried out at RT and T7 at 37° C. RNA products were then purified with RNA Clean & Concentrator™-5 kit into a final solution of 10 µl and 5 µl each was mixed with 5 µl denaturing RNA loading dye. Samples were then heated at 65° C. for 5 min and loaded onto 1.6% TAE agarose gel. RNA products were visualized by ethidium bromide staining. For FIG. 12B, reaction mixtures (10 μl) containing 40 mM Tris-HCl pH 8.0, 6 mM MgCl2, 2 mM spermidine, 10 mM DTT, 200 µM[…]P, GTP and UTP (or Pseudo-UTP), 10 µM [[…]-^32P]CTP, 1.5 U/µl RNaseOUT™ recombinant ribonuclease inhibitor, 0.5 μM DNA templates S5P-tDNAR or T7P-tDNAR, and various amount of Syn5 or T7 RNAP were incubated at RT (for Syn5 RNAP) or 37° C. (for T7 RNAP) for 30 min before adding of one unit of DNase I to each reaction mixture and an additional incubation of 15 min at 37° C. Reactions were then terminated by the addition of 4 µl of loading dye containing 95% formamide and 40 mM EDTA. Samples were then heated at 90° C. for 1 min and 4 µl sample each was loaded onto 6% TBE-Urea denaturing polyacrylamide gel. After electrophoresis, gels were dried and analyzed using a Fuji BAS 1000 Bioimaging Analyzer.

[2] = CTP and UTP present, 1500 nt run-off transcript, optimal temperature of each RNAP

Molecule | transcription from a T7 promoter (T7 promoter) | yield of RNA ([1]; 160 mM KCl) | yield of RNA, based on A260 [1, 2] | yield of RNA, based on A260 ([1]; CTP replaced by 5mCTP) [µg] | yield of RNA, based on A260 ([1]; UTP replaced by Ps-UTP) [µg] | yield relative to that in the absence of salt ([1]; 160 mM KCl)
T7 RNAP: RNA polymerase encoded by bacteriophage T7, from New England Biolabs [reference compound] | initiates transcription and produces a runoff transcript | completely inhibited | 0.64 µg | 0.75 | 0.59 | –
B1 | does not recognize a T7 promoter | 0.31 µg | 0.69 µg | 0.76 | 0.63 | about 50%
